Consider seven molecules from publication PMC10115844, “The structural basis of tRNA recognition by arginyl-tRNA-protein transferase”.

The target of data set [1] is T1, scATE1 (arginyl-tRNA-protein transferase 1) (Saccharomyces cerevisiae) (UniProt P16639).
T1 sequence: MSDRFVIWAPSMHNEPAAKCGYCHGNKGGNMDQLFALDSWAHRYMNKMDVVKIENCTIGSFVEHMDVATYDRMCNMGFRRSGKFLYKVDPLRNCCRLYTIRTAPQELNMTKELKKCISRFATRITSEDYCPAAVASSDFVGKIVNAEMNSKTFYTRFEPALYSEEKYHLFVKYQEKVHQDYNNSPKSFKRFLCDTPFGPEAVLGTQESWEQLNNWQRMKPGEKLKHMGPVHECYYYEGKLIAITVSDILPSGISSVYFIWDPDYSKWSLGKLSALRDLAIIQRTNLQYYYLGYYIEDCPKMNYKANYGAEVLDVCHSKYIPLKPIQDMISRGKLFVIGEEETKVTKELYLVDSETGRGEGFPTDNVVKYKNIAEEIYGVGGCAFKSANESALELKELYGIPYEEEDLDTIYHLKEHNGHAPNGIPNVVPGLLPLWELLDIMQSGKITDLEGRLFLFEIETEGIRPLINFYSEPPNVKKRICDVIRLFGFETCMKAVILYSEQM
As to the kind of experiment: EMSA. As to conditions: EMSA: 20 mM Tris-HCl pH 7.5, 150 mM NaCl, 5 mM DTT, on ice (tRNAArg: 0.001% NP-40, 30 °C), MST: 10 mM Tris, 5 mM Na phosphate pH 7.0, 100 mM NaCl, 3 mM DTT ….

Data set [2] deals with T2, scATE1 (arginyl-tRNA-protein transferase 1) (Saccharomyces cerevisiae, UniProt P16639 1-503).
T2 sequence: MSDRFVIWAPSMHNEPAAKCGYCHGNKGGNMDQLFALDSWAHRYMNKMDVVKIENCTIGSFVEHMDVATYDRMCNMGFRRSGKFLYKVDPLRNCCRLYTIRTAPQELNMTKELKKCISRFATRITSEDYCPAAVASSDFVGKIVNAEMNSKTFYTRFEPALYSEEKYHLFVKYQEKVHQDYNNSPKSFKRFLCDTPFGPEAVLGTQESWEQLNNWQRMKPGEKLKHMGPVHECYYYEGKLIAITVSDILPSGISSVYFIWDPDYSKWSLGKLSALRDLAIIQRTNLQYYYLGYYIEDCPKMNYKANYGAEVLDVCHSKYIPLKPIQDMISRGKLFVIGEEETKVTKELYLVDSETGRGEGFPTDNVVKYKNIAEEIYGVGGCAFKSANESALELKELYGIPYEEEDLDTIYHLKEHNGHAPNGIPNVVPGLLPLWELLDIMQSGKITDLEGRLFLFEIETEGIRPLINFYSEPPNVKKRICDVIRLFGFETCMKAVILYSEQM
Description: cryoEM structure; co-purified complex, 3.7 Å map; EMD-29638; EMSA: 20 mM Tris-HCl pH 7.5, 150 mM NaCl, 5 mM DTT, on ice (tRNAArg: 0.001% NP-40, 30 °C); MST: 10 mM Tris, 5 mM Na phosphate pH 7.0, 100 mM NaCl, 3 mM DTT, 0.08% Tween-20; fluorescence: 20 mM Tris pH 7.5, 125 mM NaCl, 3 mM DTT, 27 °C. To be noted: protein: recombinant; tags: N-terminal GST (pGEX 6p-1), cleaved with PreScission; label: none; tRNA cloverleaf.

Data set [3] concerns the target T2, scATE1 (arginyl-tRNA-protein …). Description: MST competition; displacement of FAM-DNA, 30 µM ATE1; EMSA: 20 mM Tris-HCl pH 7.5, 150 mM NaCl, 5 mM DTT, on ice (tRNAArg: 0.001% NP-40, 30 °C); MST: 10 mM Tris, 5 mM Na phosphate pH 7.0, 100 mM NaCl, 3 mM DTT, 0.08% Tween-20; fluorescence: 20 mM Tris pH 7.5, 125 mM NaCl, 3 mM DTT, 27 °C. To be noted: protein: recombinant; tags: N-terminal GST (pGEX 6p-1), cleaved with PreScission; label: none (SYBR green stain); hairpin.

Consider human tRNAArg A + T arms, for which, in data set [1], the binding signal (fold higher affinity from A + T arms) came to 4.
With human tRNAArg, in vitro transcribed, the Kd in data set [1] (30 °C, 0.001% NP-40, 1 nM RNA, apparent Kd) turned out to be 155 nM.
Molecule E. coli tRNALys acceptor arm registered a Kd in data set [1] (smeary bands, possibly non-specific) of 4000 nM.
“full-length tRNALys, in vitro transcribed” displayed a binding signal (fold weaker than tRNAArg) in data set [1] (0.25 µM tRNA, affinity similar to acceptor arm alone) of 20.
human tRNAArg acceptor (A) arm gave a Kd in data set [1] (2-fold stronger than E. coli acceptor arm) of 1500 nM.

B1: tRNAArg (argU) in the cryoEM complex (structured_RNA)
RNA: GCGCCCUUAGCUCAGUUGGAUAGAGCAACGACCUUCUAAGUCGUGGGCCGCAGGUUCGAAUCCUGCAGGGCGCGCCA
modifications: native modifications possible, not stated
In the case of B1, the binding result in data set [2] is listed as “binds”.

B2: E. coli tRNAArg acceptor arm miniRNA hairpin (structured_RNA)
RNA: GCAUCCGCUACGAACGGAUGCACCA
B2: in data set [3], the Ki is ~3600 nM.
